Assay results published in the supplement of paper PMC7877785.
± gives the uncertainty stated by the source.

Assay: self-splicing fitness, log relative to wild type (ln ratio); higher = more splicing; Tetrahymena group I intron in knt gene, E. coli kanamycin selection, DiMSum; sequences stand for … in CUCUCU…GGAGGGAAAAGUUAUCAGGCAUGCACCUGGUAGCUAGUCUUUAAACCAAUAGAUUGCAUCGGUUUAAAAGGCAAGACCGUCAAAUUGCGGGAAAGGGGUCAACAGCCGUUCAGUACCAAGUCUCAGGGGAAACUUUGAGAUGGCCUUGCAAAGGGUAUGGUAAUAAGCUGACGGACAUGGUCCUAACCACGCAGCCAAGUCCUAAGUCAACAGAUCUUCUGUUGAUAUGGAUGCAGUUCACAGACUAAAUGUCGGUCGGGGAAGAUGUAUUCUUCUCAUAAGAUAUAGUCGGACCUCUCCUUAAUGGGAGCUAGCGGAUGAAGUGAUGCAACACUGGAGCCGCUGGGAACUAAUUUGUAUGCGAAAGUAUAUUGAUUAGUUUUGGAGUACUCGUGGUCG
Summary of the method: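 A randomised library covering all eight P1ex-region intron nucleotides was built with the intron in the knt kanamycin-resistance gene on pET-22b(+) and held in E. coli BL21(DE3). Cells were grown overnight at 37°C or 30°C on LB agar, with or without 25 μg/mL kanamycin, plus 100 μg/mL carbenicillin, 50 μM IPTG and 0.2% rhamnose, and pooled colonies were amplicon-sequenced on an Illumina HiSeq 2500. DiMSum fitness is the error-weighted combination of wild-type-normalised replicate fold changes, kanamycin versus none.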

| Sequence | self-splicing fitness (ln) (30 °C) | self-splicing fitness (ln) (37 °C) |
| --- | --- | --- |
| CUGGAGCAAUAUUACGAAAG | -3.51 ± 0.4 | – |
| CUGGAGCAAUAUUACGACAG | -4.83 ± 0.31 | -2.42 ± 0.49 |
| CUGGAGCAAUAUUACGACGU | – | -1.09 ± 0.2 |
| CUGGAGCAAUAUUACGACUA | -1.37 ± 0.28 | -1.38 ± 0.31 |
| CUGGAGCAAUAUUACGACUG | 0.202 ± 0.15 | 0.00578 ± 0.21 |
| CUGGAGCAAUAUUACGACUU | -3.44 ± 0.38 | -2.38 ± 0.39 |
| CUGGAGCAAUAUUACGAGCG | -1.05 ± 0.094 | -0.179 ± 0.11 |
| CUGGAGCAAUAUUACGCAAU | -3.93 ± 0.33 | -2.08 ± 0.29 |
| CUGGAGCAAUAUUACGCAGA | -3.56 ± 0.37 | – |
| CUGGAGCAAUAUUACGCCAG | – | -2.59 ± 0.33 |
| CUGGAGCAAUAUUACGCCAU | – | -2.32 ± 0.34 |
| CUGGAGCAAUAUUACGCCCA | – | -2.1 ± 0.5 |
| CUGGAGCAAUAUUACGCGGG | -3.62 ± 0.33 | -2.33 ± 0.31 |
| CUGGAGCAAUAUUACGCUGG | – | -2.98 ± 0.35 |
| CUGGAGCAAUAUUACGGAUC | -2.82 ± 0.21 | -2.87 ± 0.35 |
| CUGGAGCAAUAUUACGGCGC | – | -1.02 ± 0.41 |
| CUGGAGCAAUAUUACGUAAU | -2.46 ± 0.29 | – |
| CUGGAGCAAUAUUACGUACU | – | -2.19 ± 0.43 |
| CUGGAGCAAUAUUACGUGGA | -1.96 ± 0.23 | -2.63 ± 0.48 |
| CUGGAGCAAUAUUACGUUGA | -1.67 ± 0.34 | -2.26 ± 0.49 |
| CUGGAGCAAUAUUACGUUUC | -3.92 ± 0.31 | -2.38 ± 0.31 |
| CUGUAGCAAUAUUACGACAU | -1.528 ± 0.014 | -0.616 ± 0.033 |
| CUGUAGCAAUAUUACGACUG | -0.156 ± 0.12 | -0.0808 ± 0.17 |
| CUGUAGCAAUAUUACGAGUU | -2.02 ± 0.3 | -3.02 ± 0.37 |
| CUGUAGCAAUAUUACGAUUC | -3.71 ± 0.23 | -3.19 ± 0.4 |
| CUGUAGCAAUAUUACGGACC | -2.03 ± 0.47 | – |

| Sequence | self-splicing fitness (ln) (30 °C) | self-splicing fitness (ln) (37 °C) |
| --- | --- | --- |
| CUGUAGCAAUAUUACGGAUC | -3.93 ± 0.3 | -3.45 ± 0.39 |
| CUGUAGCAAUAUUACGGGAC | -1.04 ± 0.18 | -0.365 ± 0.21 |
| CUGUAGCAAUAUUACGGGCA | – | -2.5 ± 0.49 |
| CUGUAGCAAUAUUACGGGUG | -0.818 ± 0.084 | -1.15 ± 0.099 |
| CUGUAGCAAUAUUACGGUUC | -3.87 ± 0.14 | -3.71 ± 0.22 |
| CUGUAGCAAUAUUACGUAAG | -0.583 ± 0.081 | -0.353 ± 0.082 |
| CUGUAGCAAUAUUACGUAUU | -4.45 ± 0.29 | -3.47 ± 0.33 |
| CUGUAGCAAUAUUACGUUAU | -3.21 ± 0.22 | -2.83 ± 0.23 |
| CUGUAGCAAUAUUACGUUCG | -0.00257 ± 0.13 | 0.798 ± 0.14 |
| CUUAAGCAAUAUUACGAAGC | -3.09 ± 0.36 | -2.17 ± 0.31 |
| CUUAAGCAAUAUUACGAAUC | -2.97 ± 0.23 | – |
| CUUAAGCAAUAUUACGACAC | -3.04 ± 0.38 | -1.54 ± 0.44 |
| CUUAAGCAAUAUUACGACCG | 0.42 ± 0.14 | -0.4 ± 0.16 |
| CUUAAGCAAUAUUACGAGAU | -2.92 ± 0.22 | -1.59 ± 0.2 |
| CUUAAGCAAUAUUACGCAAC | -3.55 ± 0.27 | -2.37 ± 0.26 |
| CUUAAGCAAUAUUACGCGCA | -3.58 ± 0.35 | – |
| CUUAAGCAAUAUUACGCGGC | -2.93 ± 0.24 | -2.48 ± 0.27 |
| CUUAAGCAAUAUUACGCGGG | -2.83 ± 0.2 | -2.92 ± 0.31 |
| CUUAAGCAAUAUUACGGCGU | -3.35 ± 0.2 | -1.89 ± 0.17 |
| CUUAAGCAAUAUUACGGGCA | -3.03 ± 0.23 | -2.3 ± 0.25 |
| CUUAAGCAAUAUUACGGGCG | -0.789 ± 0.13 | -0.48 ± 0.14 |
| CUUAAGCAAUAUUACGGUCA | -3.8 ± 0.46 | -3.15 ± 0.32 |
| CUUAAGCAAUAUUACGGUGU | -3.31 ± 0.22 | -2.02 ± 0.18 |
| CUUAAGCAAUAUUACGUAAG | -2.83 ± 0.1 | -1.27 ± 0.098 |
| CUUAAGCAAUAUUACGUAGU | -3.14 ± 0.13 | -2.3 ± 0.18 |
| CUUAAGCAAUAUUACGUAUG | -1.37 ± 0.056 | -1.24 ± 0.073 |

| Sequence | self-splicing fitness (ln) (30 °C) | self-splicing fitness (ln) (37 °C) |
| --- | --- | --- |
| CUUAAGCAAUAUUACGUCAU | -4.2 ± 0.26 | -2.84 ± 0.19 |
| CUUAAGCAAUAUUACGUCGA | -1.85 ± 0.19 | -2.19 ± 0.38 |
| CUUAAGCAAUAUUACGUGCA | -2.91 ± 0.19 | -1.34 ± 0.18 |
| CUUAAGCAAUAUUACGUGCG | -1.34 ± 0.079 | -0.172 ± 0.1 |
| CUUAAGCAAUAUUACGUUAA | -3.97 ± 0.39 | -2.63 ± 0.32 |
| CUUAAGCAAUAUUACGUUUC | -3.98 ± 0.17 | -3.23 ± 0.28 |
| CUUCAGCAAUAUUACGAAAU | -2.2 ± 0.31 | -2.4 ± 0.5 |
| CUUCAGCAAUAUUACGAAUA | -2.77 ± 0.14 | -2.09 ± 0.13 |
| CUUCAGCAAUAUUACGACGA | – | -1.54 ± 0.37 |
| CUUCAGCAAUAUUACGAGCG | -0.695 ± 0.058 | -0.136 ± 0.085 |
| CUUCAGCAAUAUUACGAGGA | -2.73 ± 0.26 | -1.64 ± 0.24 |
| CUUCAGCAAUAUUACGAGUU | -3.14 ± 0.2 | -2.03 ± 0.2 |
| CUUCAGCAAUAUUACGAUGC | -2.93 ± 0.21 | -2.23 ± 0.23 |
| CUUCAGCAAUAUUACGAUUC | -2.88 ± 0.21 | -1.85 ± 0.16 |
| CUUCAGCAAUAUUACGCAAC | -2.86 ± 0.21 | – |
| CUUCAGCAAUAUUACGCACA | -2.37 ± 0.24 | – |
| CUUCAGCAAUAUUACGCCAC | -2.72 ± 0.5 | – |
| CUUCAGCAAUAUUACGCCUC | – | -3.49 ± 0.32 |
| CUUCAGCAAUAUUACGCUUA | -3.34 ± 0.2 | -2.4 ± 0.17 |
| CUUCAGCAAUAUUACGGACG | -0.00287 ± 0.06 | -0.541 ± 0.073 |
| CUUCAGCAAUAUUACGUACG | -0.327 ± 0.062 | 0.542 ± 0.088 |
| CUUCAGCAAUAUUACGUAGA | -3.3 ± 0.19 | -2.92 ± 0.27 |
| CUUCAGCAAUAUUACGUAGC | -3.62 ± 0.16 | -2.95 ± 0.25 |
| CUUCAGCAAUAUUACGUCAA | -1.25 ± 0.34 | – |
| CUUGAGCAAUAUUACGAAAU | -2.7 ± 0.2 | -3.68 ± 0.46 |
| CUUGAGCAAUAUUACGACCA | -1.41 ± 0.32 | – |

| Sequence | self-splicing fitness (ln) (30 °C) | self-splicing fitness (ln) (37 °C) |
| --- | --- | --- |
| CUUGAGCAAUAUUACGAGAA | -2.73 ± 0.4 | – |
| CUUGAGCAAUAUUACGAUAU | – | -1.76 ± 0.39 |
| CUUGAGCAAUAUUACGAUCG | -1.2 ± 0.16 | -0.798 ± 0.23 |
| CUUGAGCAAUAUUACGAUUA | -3.25 ± 0.26 | -2.36 ± 0.35 |
| CUUGAGCAAUAUUACGAUUU | – | -2.09 ± 0.39 |
| CUUGAGCAAUAUUACGCAGA | -1.11 ± 0.26 | -1.91 ± 0.3 |
| CUUGAGCAAUAUUACGCCCU | – | -2.21 ± 0.46 |
| CUUGAGCAAUAUUACGCCUG | – | -1.13 ± 0.36 |
| CUUGAGCAAUAUUACGCUAC | -2.82 ± 0.49 | -2.02 ± 0.45 |
| CUUGAGCAAUAUUACGCUUC | -2.91 ± 0.28 | -1.96 ± 0.45 |
| CUUGAGCAAUAUUACGCUUU | -2.88 ± 0.32 | -3.35 ± 0.31 |
| CUUGAGCAAUAUUACGGAAC | -2.25 ± 0.2 | -2.61 ± 0.33 |
| CUUGAGCAAUAUUACGGACG | -0.339 ± 0.15 | 0.256 ± 0.26 |
| CUUGAGCAAUAUUACGGCCG | – | -0.18 ± 0.27 |
| CUUGAGCAAUAUUACGGCGU | -3.95 ± 0.34 | -2.76 ± 0.26 |
| CUUGAGCAAUAUUACGGGGG | -2.81 ± 0.2 | -3.25 ± 0.39 |
| CUUGAGCAAUAUUACGGUUC | -3.56 ± 0.35 | -2.51 ± 0.36 |
| CUUGAGCAAUAUUACGUGAA | -3.07 ± 0.2 | -2.36 ± 0.3 |
| CUUGAGCAAUAUUACGUGUC | -2.02 ± 0.22 | -2.28 ± 0.26 |
| CUUUAGCAAUAUUACGAAUU | – | -3.6 ± 0.46 |
| CUUUAGCAAUAUUACGACAG | -0.431 ± 0.071 | -0.339 ± 0.097 |
| CUUUAGCAAUAUUACGACGG | -0.354 ± 0.13 | -0.827 ± 0.16 |
| CUUUAGCAAUAUUACGAGAC | -1.83 ± 0.36 | -2.9 ± 0.4 |
| CUUUAGCAAUAUUACGAGGU | -3.4 ± 0.23 | -2.3 ± 0.27 |
| CUUUAGCAAUAUUACGAUAG | -0.991 ± 0.11 | -0.782 ± 0.14 |
| CUUUAGCAAUAUUACGAUUG | -0.504 ± 0.12 | 0.118 ± 0.17 |
